# Measurements reported in PMC7586228.
# What was measured:
# [1] = Golgi residence time, live imaging with CHX; conditions: glycan lost; control: DMSO
# [2] = immunofluorescence, colocalisation with GM130; conditions: glycan lost; control: DMSO
substance,measurement,setting,value
transferrin receptor (TfR): GalNAc-O-Bn,localisation_or_trafficking,[1],increases
same,localisation_or_trafficking,[2],changes
